Read-outs that look alike come from different tables or passages of the source.

The target of assay [1] is T1, hCXCR4Rho1D4 (full-length human CXCR4 receptor with C-terminal Rho1D4 tag) (human, UniProt P61072 6-352 (Pan troglodytes entry)). Put plainly: cell-based or functional assay.
The target of assay [2] is T1, hCXCR4Rho1D4 (full-length human CXCR4 …). Put plainly: cell-based or functional assay. The source holds these as a separate data set.
Assay [3] has the same target. Put plainly: control Nanobody co-expressed with hCXCR4Rho1D4 in P. pastoris; receptor level read by anti-Rho1D4 immunoblot. From the text: Equal amounts of total membrane protein (determined by a BCA assay) of induced P. pastoris GS115 clones, expressing only the human CXCR4 receptor, or in combination with a anti-hCXCR4 Nanobody (NbCA4142), or in combination with the negative control Nanobody (NbCA4910), were run on a 12% SDS-PAGE gel and blotted on a nitrocellulose membrane. The blot was developed with a primary mouse anti-Rho1D4 monoclonal antibody and a secondary Dylight (800 nm) goat anti-mouse IgG on an LI-COR odyssey system. For the hCXCR4-specific Nb co-expressing clone we detect more of the anti-Rho1D4 immunoreactive membrane protein band compared to the GS115hCXCR4 clone without Nb co-expression. […] Exact quantification has been calculated by the Odyssey software by measuring relative fluorescent signals (Table 4). It can, thus, be concluded that the increase in receptor expression can be attributed to the Nanobody-specific interaction with the receptor.
Protein samples were analyzed by SDS-poly-acrylamide gel electrophoresis, according to the Laemmli (Laemmli et al., 1970, Nature, 227:680) or the Tricine method (Schagger et al., 2006, Nat. Protoc. 1:16-22). Before loading on gel, the samples were mixed with 5×Laemmli (60 mM Tris-HCl pH 6,8; 2% SDS, 10% glycerol, 5% β-ME; 0.01% bromophenol blue) and heated for 10 minutes at 95° C. (only the ECM samples, not the membrane protein preparations). […]

T1 sequence (P61072 other isoform, or with tags, fused parts or gaps limits assumed): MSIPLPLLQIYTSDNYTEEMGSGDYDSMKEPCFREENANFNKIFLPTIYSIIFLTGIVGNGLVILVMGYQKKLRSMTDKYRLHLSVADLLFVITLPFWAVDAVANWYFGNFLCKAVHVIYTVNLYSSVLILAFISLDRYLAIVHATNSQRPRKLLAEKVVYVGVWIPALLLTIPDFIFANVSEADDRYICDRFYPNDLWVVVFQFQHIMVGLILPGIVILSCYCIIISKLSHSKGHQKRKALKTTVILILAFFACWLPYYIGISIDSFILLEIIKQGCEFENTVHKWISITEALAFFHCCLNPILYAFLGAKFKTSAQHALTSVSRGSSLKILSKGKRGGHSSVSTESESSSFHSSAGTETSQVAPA

B1: Nanobody CA4142 (VHH)
VHH: QVQLQESGGGLVRTGGSLRLSCAGSGSFFSINPMGWYRQAPGQQRELVATITGSGSTNYADSVKGRFTISRDNAKNTLYLQMNSLKPEDTAVYYCNAGYFDRIGRRYDRWGQGTQVTVSS
With B1, the “Factor improvement (relative hCXCR4 expression, anti-Rho1D4 immunoblot fluorescence)” value is 2.6 fold in assay [1] and 1.9 fold in assay [2].

B2: Nanobody CA4140 (VHH)
VHH: QVQLQESGGGLVQPGGSLRLSCAASGSIFSINAMGWYRQAPGKQRELVAAITSGGSTNYADSVKGRFTISRDNAENTVYLQMNNLKPEDTAVYSCNAEGTSGSSRYRRRYEYWGKGTQVTVSS
Consider B2, for which, in assay [1], the “Factor improvement (relative hCXCR4 expression, anti-Rho1D4 immunoblot fluorescence)” value amounted to 2.8 fold.

B3: Nanobody CA4143 (VHH)
VHH: QVQLQESGGGLVQPGGSLRLSCAASGFTFSSYAMSWVRQAPGKGLEWVSTINSGGRSANYADSVKGRLTISRDNAKNTLHLQMNSLKPEDTALYYCARPRSVSRNYVPLGYDYLGQGTQVTVSS
Turning to B3, the “Factor improvement (relative hCXCR4 expression, anti-Rho1D4 immunoblot fluorescence)” value in assay [1] was 3 fold.

B4: Nanobody CA4500 (VHH)
VHH: QVQLQESGGGLVQAGGSLRLSCAASGSTSGIIAMGWYRQAPGKQRELVARISSGSSTNYADSVKGRFTVSRDNAKNTVYLQMNSLKPEDTAVYYCNAVRRGYRNDYNSWGQGTQVTVSS
For B4, in assay [1], the “Factor improvement (relative hCXCR4 expression, anti-Rho1D4 immunoblot fluorescence)” value was found to be 1.3 fold.

B5: Nanobody CA4910 (VHH)
VHH: QVQLVESGGGLVQPGGSLRLSCAASGSFRSIVSMAWYRQAPGKQRELVASSNSGGSTNYADSVKGRFTISRDNAKNTVYLQMNSLKPEDTAVYWCNVQNRLPGFDAFSGRSIAETYWGQGTQVTVSS
notes: It was co-expressed in P. pastoris as a control; also called NbCA4910; Nb4910
B5: the binding result in assay [3] is listed as “no binding”. Besides, in assay [2], the “Factor improvement (relative hCXCR4 expression, anti-Rho1D4 immunoblot fluorescence), clone 1” value turned out to be 0.4 fold; the “Factor improvement (relative hCXCR4 expression, anti-Rho1D4 immunoblot fluorescence), clone 2” value stood at 1.1 fold; the “Factor improvement (relative hCXCR4 expression, anti-Rho1D4 immunoblot fluorescence), clone 3” value amounted to 1.2 fold.

For the origin of these results see patent US20230071321A1 (VIB VZW, published 2023).
